Experimental data from paper PMC3177201.

T1: Prp24 oRRM4 (Saccharomyces cerevisiae, UniProt P49960 292-400)
T1 sequence: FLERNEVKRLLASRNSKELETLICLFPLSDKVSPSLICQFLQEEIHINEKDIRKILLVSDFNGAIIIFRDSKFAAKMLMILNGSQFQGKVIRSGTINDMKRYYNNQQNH


Experiments:
[1] = molecular target: T1, Prp24 oRRM4; assay: fluorescence anisotropy
[2] = molecular target: T1, Prp24 oRRM4; assay: fluorescence anisotropy; remark: listed apart in the source

Row | Binder | Kd [1] | binding result [2]
1 | AGAGAUGAUCAGCAGUUCCCCUGCAUAAGGAUGAACCGUU (structured_RNA) [U6 nt 49-88, 5'-Cy5] | 3.1 µM | 
2 | U2 nt 1-51, 5'-FITC (ssRNA) RNA: ACGAAUCUCUUUGCCUUUUGGCUUAGAUCAAGUGUAGUAUCUGUUCUUUUC |  | binds
